Test results published in patent US20150225459A1 (ARCH CANCER THERAPEUTICS, published 2015).
Ends that are not written are not given here.

B1: HLPSIIPTMPYR (SEQ ID NO: 2) (peptide)
peptide: HLPSIIPTMPYR
notes: also called putative target of LSALT
B2: FEQKKGT (SEQ ID NO: 8) (peptide)
peptide: FEQKKGT
notes: as for B1
B3: MNVTPRQ (SEQ ID NO: 11) (peptide)
peptide: MNVTPRQ
notes: as for B1
B4: LNTQTGK (SEQ ID NO: 15) (peptide)
peptide: LNTQTGK
notes: as for B1
B5: LGPAHLY (SEQ ID NO: 13) (peptide)
peptide: LGPAHLY
notes: as for B1
B6: HATGTHGLSLSH (SEQ ID NO: 6) (peptide)
peptide: HATGTHGLSLSH
notes: as for B1
B7: TNITESQQLNWR (SEQ ID NO: 7) (peptide)
peptide: TNITESQQLNWR
notes: as for B1
B8: GLHNKTH (SEQ ID NO: 14) (peptide)
peptide: GLHNKTH
notes: as for B1
B9: DNTRVDT (SEQ ID NO: 9) (peptide)
peptide: DNTRVDT
notes: as for B1
B10: EQFTNLLDMTYA (SEQ ID NO: 5) (peptide)
peptide: EQFTNLLDMTYA
notes: as for B1
B11: TTEHPRK (SEQ ID NO: 12) (peptide)
peptide: TTEHPRK
notes: as for B1
B12: EQFTNLLDMYTA (SEQ ID NO: 3) (peptide)
peptide: EQFTNLLDMYTA
notes: as for B1
B13: IPPSYSATLPALR (SEQ ID NO: 4) (peptide)
peptide: IPPSYSATLPALR
notes: as for B1
B14: NERNSWH (SEQ ID NO: 16) (peptide)
peptide: NERNSWH
notes: as for B1
B15: PTLPWKK (SEQ ID NO: 10) (peptide)
peptide: PTLPWKK
notes: as for B1

Target: T1, LSALT phage (T7 phage displaying the LSALT peptide LSALTPSPSWLKYKAL) (also: displayed on T7 phage, fused to the coat protein)
T1 construct: The peptide is not naturally occurring; it is the out-of-frame product of Ube2n; also called Ube2n (LSALT) phage; LSALT-bacteriophage
T1 peptide: LSALTPSPSWLKYKAL
Assay: biopanning of a combinatorial M13 phage library against LSALT phage immobilized on nitrocellulose
Excerpt: When the LSALT phage was immobilized on nitrocellulose and biopanned against with a combinatorial M13 phage library, the following peptides were isolated as peptides that bind specifically with the LSALT. These peptides provide potential targets for action of LSALT peptides, variants and modifications thereof.

Binder | binding result
B1 | binds
B2 | binds
B3 | binds
B4 | binds
B5 | binds
B6 | binds
B7 | binds
B8 | binds
B9 | binds
B10 | binds
B11 | binds
B12 | binds
B13 | binds
B14 | binds
B15 | binds
